Results on 14 sequences are retold here after the supplement of paper PMC5998384.

The test system of data set [1] is HeLa Kyoto. Nature of the data set: solubility change mitosis vs G1/S (difference of NP-40 vs SDS log2 ratios) (log2 ratio difference); higher = more soluble in mitosis.
Data set [2] relates to HeLa Kyoto. In words: solubility in G1/S (NP-40 vs SDS abundance) (log2 ratio); higher = more soluble. As to conditions: cell cycle stage: G1/S.
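Wherever solubility change mitosis vs G1/S (difference of NP-40 vs SDS log2 ratios) is given: synchronized HeLa Kyoto cells (double thymidine block for G1/S, nocodazole release for mitosis), protein amounts in NP-40 versus SDS lysates quantified by mass spectrometry, three biological replicates.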
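Wherever solubility in G1/S (NP-40 vs SDS abundance) is given: HeLa Kyoto cells arrested at G1/S by double thymidine block, proteins quantified by TMT10plex mass spectrometry in mild NP-40 versus SDS extracts, three biological replicates.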

“MTHTRRKSLPMLSSGLTGRREPLQMEDSNMEQGVEGVEPGMPESPGHLTGRRKNYPLRKRPLVPEKPKACKVLLTRLENVAGPRSADEADELPPDLPKPPSPAPSSEDPGLAQPRKRRLASLNAEALNNLLLEREDTSSLAGTRRSRAGDPHRSRDRDRATGGWSSSKKRPRLGDLGGGSRDLSPEPAPDEGPRRDGDPAPKRLASLNAAAFLKLSQERELPLRLPRAHAEVDGRSTEPPAPKAPRPKWPKVNGKNYPKAWQGASSGEAAGPPGWQGCPDEPWPSATPCGPSVQPSHQPLSKALESPLGLRPHLPLLMGGQAALKPEPGRPGEESPAPKQELHQPSFPTPQLSPLPMPGNPADYNGLCVGPELTALGSFYLYCGQEGLQCGGYSPCPMLPEGKLSPVAAPHEEGLLLAPSSVPSGTPFQHPPWGSSRYCSSEDTGVNGYSICGVLPLSVTHAGTTCGGCPYKMPFAAEGCRSLGQLEFPLPEAGHPASPAHPLLGCPVPSVPPAAEPVPHLQTPTSEPQTVARACPQSAKPPSGSKSGLRTGSSCRHTARSKAARRPSHPKQPRVQRPRPRRRRRRRTNGWVPVGAACEKAVYVLDEPEPAIRKSYQAVERHGETIRVRDTVLLKSGPRKTSTPYVAKISALWENPESGELMMSLLWYYRPEHLQGGRSPSMHEPLQNEVFASRHQDQNSVACIEEKCYVLTFAEYCRFCAMAKRRGEGLPSRKTALVPPSADYSTPPHRTVPEDTDPELVFLCRHVYDFRHGRILKNPQ [BAHD1]”: the “solubility change mitosis (log2)” value with HeLa Kyoto [1] was 0.738. Moreover, the “solubility in G1/S (log2)” value with HeLa Kyoto [2] is -0.799.
For the sequence “MTKKKRENLGVALEIDGLEEKLSQCRRDLEAVNSRLHSRELSPEARRSLEKEKNSLMNKASNYEKELKFLRQENRKNMLLSVAIFILLTLVYAYWTM [CCDC167]”, the “solubility change mitosis (log2)” value in the data set with HeLa Kyoto [1] was 0.231. Further, the “solubility in G1/S (log2)” value with HeLa Kyoto [2] came out at 0.839.
With “MTPLVSRLSRLWAIMRKPRAAVGSGHRKQAASQEGRQKHAKNNSQAKPSACDGMIAECPGAPAGLARQPEEVVLQASVSSYHLFRDVAEVTAFRGSLLSWYDQEKRDLPWRRRAEDEMDLDRRAYAVWVSEVMLQQTQVATVINYYTGWMQKWPTLQDLASASLEEVNQLWAGLGYYSRGRRLQEGARKVVEELGGHMPRTAETLQQLLPGVGRYTAGAIASIAFGQATGVVDGNVARVLCRVRAIGADPSSTLVSQQLWGLAQQLVDPARPGDFNQAAMELGATVCTPQRPLCSQCPVESLCRARQRVEQEQLLASGSLSGSPDVEECAPNTGQCHLCLPPSEPWDQTLGVVNFPRKASRKPPREESSATCVLEQPGALGAQILLVQRPNSGLLAGLWEFPSVTWEPSEQLQRKALLQELQRWAGPLPATHLRHLGEVVHTFSHIKLTYQVYGLALEGQTPVTTVPPGARWLTQEEFHTAAVSTAMKKVFRVYQGQQPGTCMGSKRSQVSSPCSRKKPRMGQQVLDNFFRSHISTDAHSLNSAAQ [MUTYH]”, in the data set with HeLa Kyoto [1], the “solubility change mitosis (log2)” value is -0.0934. The “solubility in G1/S (log2)” value in the data set on HeLa Kyoto [2] came to 0.104.
On the same counts, the results for “MTPWLGLIVLLGSWSLGDWGAEACTCSPSHPQDAFCNSDIVIRAKVVGKKLVKEGPFGTLVYTIKQMKMYRGFTKMPHVQYIHTEASESLCGLKLEVNKYQYLLTGRVYDGKMYTGLCNFVERWDQLTLSQRKGLNYRYHLGCNCKIKSCYYLPCFVTSKNECLWTDMLSNFGYPGYQSKHYACIRQKGGYCSWYRGWAPPDKSIINATDP [TIMP3]” are -0.0173 and -0.478.
On the same counts, the results for “MTSFEDADTEETVTCLQMTVYHPGQLQCGIFQSISFNREKLPSSEVVKFGRNSNICHYTFQDKQVSRVQFSLQLFKKFNSSVLSFEIKNMSKKTNLIVDSRELGYLNKMDLPYRCMVRFGEYQFLMEKEDGESLEFFETQFILSPRSLLQENNWPPHRPIPEYGTYSLCSSQSSSPTEMDENES [TIFA]” are -0.224 and 0.0872.
Take “MTSVTRSEIIDEKGPVMSKTHDHQLESSLSPVEVFAKTSASLEMNQGVSEERIHLGSSPKKGGNCDLSHQERLQSKSLHLSPQEQSASYQDRRQSWRRASMKETNRRKSLHPIHQGITELSRSISVDLAESKRLGCLLLSSFQFSIQKLEPFLRDTKGFSLESFRAKASSLSEELKHFADGLETDGTLQKCFEDSNGKASDFSLEASVAEMKEYITKFSLERQTWDQLLLHYQQEAKEILSRGSTEAKITEVKVEPMTYLGSSQNEVLNTKPDYQKILQNQSKVFDCMELVMDELQGSVKQLQAFMDESTQCFQKVSVQLGKRSMQQLDPSPARKLLKLQLQNPPAIHGSGSGSCQ [DSN1]”: the “solubility change mitosis (log2)” value with HeLa Kyoto [1] is -0.12. The “solubility in G1/S (log2)” value in the data set on HeLa Kyoto [2] amounted to 0.0805.
On the same counts, the results for “MTTKNLETKVTVTSSPIRGAGDGMETEEPPKSVEVTSGVQSRKHHSLQSPWKKAVPSESPGVLQLGKMLTEKAMEVKAVRILVPKAAITHDIPNKNTKVKSLGHHKGEFLGQSEGVIEPNKELSEVKNVLEKLKNSERRLLQDKEGLSNQLRVQTEVNRELKKLLVASVGDDLQYHFERLAREKNQLILENEALGRNTAQLSEQLERMSIQCDVWRSKFLASRVMADELTNSRAALQRQNRDAHGAIQDLLSEREQFRQEMIATQKLLEELLVSLQWGREQTYSPSVQPHSTAELALTNHKLAKAVNSHLLGNVGINNQKKIPSTVEFCSTPAEKMAETVLRILDPVTCKESSPDNPFFESSPTTLLATKKNIGRFHPYTRYENITFNCCNHCRGELIAL [BLZF1]” are 0.0573 and 0.15.
In the same order, the values of “MTTLTHRARRTEISKNSEKKMESEEDSNWEKSPDNEDSGDSKDIRLTLMEEVLLLGLKDKEGYTSFWNDCISSGLRGGILIELAMRGRIYLEPPTMRKKRLLDRKVLLKSDSPTGDVLLDETLKHIKATEPTETVQTWIELLTGETWNPFKLQYQLRNVRERIAKNLVEKGILTTEKQNFLLFDMTTHPVTNTTEKQRLVKKLQDSVLERWVNDPQRMDKRTLALLVLAHSSDVLENVFSSLTDDKYDVAMNRAKDLVELDPEVEGTKPSATEMIWAVLAAFNKS [GOLPH3L]” are 0.0306 and 0.202.
On the same counts, the results for “MVAWRSAFLVCLAFSLATLVQRGSGDFDDFNLEDAVKETSSVKQPWDHTTTTTTNRPGTTRAPAKPPGSGLDLADALDDQDDGRRKPGIGGRERWNHVTTTTKRPVTTRAPANTLGNDFDLADALDDRNDRDDGRRKPIAGGGGFSDKDLEDIVGGGEYKPDKGKGDGRYGSNDDPGSGMVAEPGTIAGVASALAMALIGAVSSYISYQQKKFCFSIQQGLNADYVKGENLEAVVCEEPQVKYSTLHTQSAEPPPPPEPARI [CD99L2]” are -0.147 and -0.143.
“MVLLHVKRGDESQFLLQAPGSTELEELTVQVARVYNGRLKVQRLCSEMEELAEHGIFLPPNMQGLTDDQIEELKLKDEWGEKCVPSGGAVFKKDDIGRRNGQAPNEKMKQVLKKTIEEAKAIISKKQVEAGVCVTMEMVKDALDQLRGAVMIVYPMGLPPYDPIRMEFENKEDLSGTQAGLNVIKEAEAQLWWAAKELRRTKKLSDYVGKNEKTKIIAKIQQRGQGAPAREPIISSEEQKQLMLYYHRRQEELKRLEENDDDAYLNSPWADNTALKRHFHGVKDIKWRPR [C21ORF59]”: in the data set with HeLa Kyoto [1], the “solubility change mitosis (log2)” value was found to be 0.0264. For the same sequence, the “solubility in G1/S (log2)” value in the data set on HeLa Kyoto [2] is 0.335.
In the same order, the values of “MVMAALSLVAACWGRAAADESVQLPAAPGSSVRARETMVSVTMATSEWIQFFKEAGIPPGPAVNYAVMFVDNRIQKSMLLDLNKEIMNELGVTVVGDIIAILKHAKVVHRQDMCKAATESVPCSPSPLAGEIRRGTSAASRMITNSLNHDSPPSTPPRRPDTSTSKISVTVSNKMAAKSAKATAALARREEESLAVPAKRRRVTAEMEGKYVINMPKGTTPRTRKILEQQQAAKGLHRTSVFDRLGAETKADTTTGSKPTGVFSRLGATPETDEDLAWDSDNDSSSSVLQYAGVLKKLGRGPAKASPQPALTVKAKATSSATTAAAPTLRRLALSSRSGLERKPESLSKVSIIKRLGAAALVPEAQDSQVTSTKSKSSAEVKVTIKRTLVGPRGSSSSEGLGAQMDHAGTVSVFKRLGRRTF [C19ORF47]” are 1.04 and -0.824.
On to “MVRTKADSVPGTYRKVVAARAPRKVLGSSTSATNSTSVSSRKAENKYAGGNPVCVRPTPKWQKGIGEFFRLSPKDSEKENQIPEEAGSSGLGKAKRKACPLQPDHTNDEKE [KIAA0101]”, for which, in the data set with HeLa Kyoto [1], the “solubility change mitosis (log2)” value worked out at 0.256. The “solubility in G1/S (log2)” value in the data set on HeLa Kyoto [2] was -0.0358.
With “MVVLRSSLELHNHSAASATGSLDLSSDFLSLEHIGRRRLRSAGAAQKKPAATTAKAGDGSSVKEVETYHRTRALRSLRKDAQNSSDSSFEKNVEITEQLANGRHFTRQLARQQADKKKEEHREDKVIPVTRSLRARNIVQSTEHLHEDNGDVEVRRSCRIRSRYSGVNQSMLFDKLITNTAEAVLQKMDDMKKMRRQRMRELEDLGVFNETEESNLNMYTRGKQKDIQRTDEETTDNQEGSVESSEEGEDQEHEDDGEDEDDEDDDDDDDDDDDDDDEDDEDEEDGEEENQKRYYLRQRKATVYYQAPLEKPRHQRKPNIFYSGPASPARPRYRLSSAGPRSPYCKRMNRRRHAIHSSDSTSSSSSEDEQHFERRRKRSRNRAINRCLPLNFRKDELKGIYKDRMKIGASLADVDPMQLDSSVRFDSVGGLSNHIAALKEMVVFPLLYPEVFEKFKIQPPRGCLFYGPPGTGKTLVARALANECSQGDKRVAFFMRKGADCLSKWVGESERQLRLLFDQAYQMRPSIIFFDEIDGLAPVRSSRQDQIHSSIVSTLLALMDGLDSRGEIVVIGATNRLDSIDPALRRPGRFDREFLFSLPDKEARKEILKIHTRDWNPKPLDTFLEELAENCVGYCGADIKSICAEAALCALRRRYPQIYTTSEKLQLDLSSINISAKDFEVAMQKMIPASQRAVTSPGQALSTVVKPLLQNTVDKILEALQRVFPHAEFRTNKTLDSDISCPLLESDLAYSDDDVPSVYENGLSQKSSHKAKDNFNFLHLNRNACYQPMSFRPRILIVGEPGFGQGSHLAPAVIHALEKFTVYTLDIPVLFGVSTTSPEETCAQVIREAKRTAPSIVYVPHIHVWWEIVGPTLKATFTTLLQNIPSFAPVLLLATSDKPHSALPEEVQELFIRDYGEIFNVQLPDKEERTKFFEDLILKQAAKPPISKKKAVLQALEVLPVAPPPEPRSLTAEEVKRLEEQEEDTFRELRIFLRNVTHRLAIDKRFRVFTKPVDPDEVPDYVTVIKQPMDLSSVISKIDLHKYLTVKDYLRDIDLICSNALEYNPDRDPGDRLIRHRACALRDTAYAIIKEELDEDFEQLCEEIQESRKKRGCSSSKYAPSYYHVMPKQNSTLVGDKRSDPEQNEKLKTPSTPVACSTPAQLKRKIRKKSNWYLGTIKKRRKISQAKDDSQNAIDHKIESDTEETQDTSVDHNETGNTGESSVEENEKQQNASESKLELRNNSNTCNIENELEDSRKTTACTELRDKIACNGDASSSQIIHISDENEGKEMCVLRMTRARRSQVEQQQLITVEKALAILSQPTPSLVVDHERLKNLLKTVVKKSQNYNIFQLENLYAVISQCIYRHRKDHDKTSLIQKMEQEVENFSCSR [ATAD2]”, the “solubility change mitosis (log2)” value in the data set on HeLa Kyoto [1] was 2.36. Besides, the “solubility in G1/S (log2)” value in the data set on HeLa Kyoto [2] is -3.07.
Regarding “MVYISNGQVLDSRSQSPWRLSLITDFFWGIAEFVVLFFKTLLQQDVKKRRSYGNSSDSRYDDGRGPPGNPPRRMGRINHLRGPSPPPMAGGUGR [SELK]”, the “solubility change mitosis (log2)” value with HeLa Kyoto [1] was 0.31. The “solubility in G1/S (log2)” value with HeLa Kyoto [2] was determined as 0.000519.
